Measured values: publication PMC6344876

Columns and labels:
[1] = system: eIF2 heterotrimer with eIF2γ-I318M (His-tagged) (Saccharomyces cerevisiae); assay: filter binding; conditions: aminoacylated with Met; Filter binding: 25 mM HEPES-KOH pH 7.6, 2.5 mM Mg(OAc)2, 80 mM KOAc, 2 mM DTT, 0.5 mM GDPNP-Mg2+, 1 nM tRNA, 3.125-200 nM eIF2, 26 C; pull-down: 20 mM Tris-HCl …
[2] = system: eIF2 heterotrimer (WT eIF2γ, His-tagged) (Saccharomyces cerevisiae); assay: filter binding; conditions: aminoacylated with Met; Filter binding: 25 mM HEPES-KOH pH 7.6, 2.5 mM Mg(OAc)2, 80 mM KOAc, 2 mM DTT, 0.5 mM GDPNP-Mg2+, 1 nM tRNA, 3.125-200 nM eIF2, 26 C; pull-down: 20 mM Tris-HCl …

Which Kd [1] does the source give for “[35S]Met-tRNAiMet (in vitro transcribed)” here?
The Kd was 98 nM.

What about the Kd [2] of the same substance?
Its Kd is 18 nM.
